Assay [1] concerns the target T1, Human TROP2 Protein, His Tag (Acro Biosystems) (human, UniProt P09758 27-274).
T1 construct: Bought protein; not shown: His tag
T1 sequence (looked up): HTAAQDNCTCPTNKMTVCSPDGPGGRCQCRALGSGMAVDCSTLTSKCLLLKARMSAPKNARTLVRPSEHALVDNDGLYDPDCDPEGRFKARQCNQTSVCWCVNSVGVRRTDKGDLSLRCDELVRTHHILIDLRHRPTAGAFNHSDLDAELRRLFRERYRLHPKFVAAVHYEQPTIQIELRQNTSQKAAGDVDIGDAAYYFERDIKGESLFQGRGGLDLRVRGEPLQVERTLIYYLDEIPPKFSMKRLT
Description: BLI (Octet). Here is the method: After allowing for four days of protein expression, cell culture supernatants were collected, quantified by SDS-PAGE analysis (DNS), and the pH dependence of the variant was evaluated using biolayer interferometry (BLI) on an Octet RED 96e instrument. Briefly, cell culture supernatants were diluted based on qualitative expression level of the variant determined by visual examination of SDS-PAGE gels, 5 μL of cell culture supernatant was diluted into 195 μL of 1×PBST, pH 7.4 for high expressors, 25 μL of cell culture supernatant was diluted into 175 μL of 1×PBST, pH 7.4 for medium expressors and 100 μL of cell culture supernatant was diluted into 100 μL of 1×PBST, pH 7.4 for low expressors for loading onto the sensor tips. The resulting diluted supernatants were then captured on an anti-human Fc sensor (Forte Bio). A baseline was established using 1×PBST (50 mM Potassium Phosphate Buffer+150 mM NaCl+0.05% Tween 20) pH 7.4, and the sensor was associated with 50 nM of TROP2 (Human TROP2 Protein, His Tag, Acro Biosystems) in 1×PBST pH 7.4 for 120 sec to generate an association curve. In the dissociation phase, the antibody-antigen complex on the sensor was exposed to 1×PBST pH 7.4 or pH 5.4, for 300 sec. Association and dissociation phase curves were examined for the starting ABPC antibody (with no substitutions) and each corresponding antibody variant at pH 5.4 and pH 7.4 to inform on two criteria: a) enhanced dissociation (i.e., higher koff values) at pH 5.4 due to histidine or alanine substitution compared to the starting ABPC, (with no substitutions), and b) reduced dissociation at pH 7.4 (i.e., lower koff values) compared to pH 5.4 in the antibody variant itself and with the starting ABPC (with no substitutions). […] It was also noted that while some mutations obliterated TROP2 binding, others were tolerated with little or n change in TROP2 binding kinetics.

The target of assay [2] is T2, Human TROP2 Protein, His Tag (Acro Biosystems) (human, UniProt P09758 27-274).
T2 construct: Bought protein; also called TACSTD2; not shown: His tag
T2 sequence: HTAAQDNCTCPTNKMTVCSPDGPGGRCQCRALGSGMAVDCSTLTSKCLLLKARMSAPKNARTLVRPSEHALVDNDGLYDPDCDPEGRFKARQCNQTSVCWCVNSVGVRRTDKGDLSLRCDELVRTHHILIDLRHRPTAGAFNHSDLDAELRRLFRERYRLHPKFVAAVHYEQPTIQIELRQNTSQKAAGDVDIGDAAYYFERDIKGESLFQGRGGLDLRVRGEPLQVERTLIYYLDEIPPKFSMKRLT
Description: BLI (Octet). On the technique in general: Biolayer interferometry detects binding as a change in optical thickness at a sensor tip.

Like-named read-outs stand apart in the source and are kept apart here.

B1: MYT11611 (antibody, V domains shown)
VH: QVQLQQSGSELKKPGASVKVSCKASGYTFTNYGMNWVKQAPGQGLKWMGWINTYTGEPTYTDDFKGRFAFSLDTSVSTAYLQISSLKADDTAVYFCARGGFGSSYWYFDVWGQGSLVTVSS
VL: DIQLTQSPSSLSASVGDRVSITCKASHDVSIAVAWYQQKPGKAPKLLIYSASYRYTGVPDRFSGSGSGTDFTLTISSLQPEDFAVYYCQQHYITPLTFGAGTKVEIK
notes: Sacituzumab variant, His at LCV position 27 (L1 04)
In the case of B1, the binding result in assay [1] is “binds”.

B2: MYT11612 (antibody, V domains shown)
VH: QVQLQQSGSELKKPGASVKVSCKASGYTFTNYGMNWVKQAPGQGLKWMGWINTYTGEPTYTDDFKGRFAFSLDTSVSTAYLQISSLKADDTAVYFCARGGFGSSYWYFDVWGQGSLVTVSS
VL: DIQLTQSPSSLSASVGDRVSITCKASQHVSIAVAWYQQKPGKAPKLLIYSASYRYTGVPDRFSGSGSGTDFTLTISSLQPEDFAVYYCQQHYITPLTFGAGTKVEIK
notes: Sacituzumab variant, His at LCV position 28 (L1 05)
For B2, the binding result in assay [1] is given as “binds”.

B3: MYT11620 (antibody, V domains shown)
VH: QVQLQQSGSELKKPGASVKVSCKASGYTFTNYGMNWVKQAPGQGLKWMGWINTYTGEPTYTDDFKGRFAFSLDTSVSTAYLQISSLKADDTAVYFCARGGFGSSYWYFDVWGQGSLVTVSS
VL: DIQLTQSPSSLSASVGDRVSITCKASQDVSIAVAWYQQKPGKAPKLLIYSHSYRYTGVPDRFSGSGSGTDFTLTISSLQPEDFAVYYCQQHYITPLTFGAGTKVEIK
notes: Sacituzumab variant, His at LCV position 51 (L2 02)
For B3, the binding result in assay [1] was “binds”.

B4: MYT11621 (antibody, V domains shown)
VH: QVQLQQSGSELKKPGASVKVSCKASGYTFTNYGMNWVKQAPGQGLKWMGWINTYTGEPTYTDDFKGRFAFSLDTSVSTAYLQISSLKADDTAVYFCARGGFGSSYWYFDVWGQGSLVTVSS
VL: DIQLTQSPSSLSASVGDRVSITCKASQDVSIAVAWYQQKPGKAPKLLIYSAHYRYTGVPDRFSGSGSGTDFTLTISSLQPEDFAVYYCQQHYITPLTFGAGTKVEIK
notes: Sacituzumab variant, His at LCV position 52 (L2 03)
In the case of B4, the binding result in assay [1] is reported as “binds”.

B5: MYT11617 (antibody, V domains shown)
VH: QVQLQQSGSELKKPGASVKVSCKASGYTFTNYGMNWVKQAPGQGLKWMGWINTYTGEPTYTDDFKGRFAFSLDTSVSTAYLQISSLKADDTAVYFCARGGFGSSYWYFDVWGQGSLVTVSS
VL: DIQLTQSPSSLSASVGDRVSITCKASQDVSIAHAWYQQKPGKAPKLLIYSASYRYTGVPDRFSGSGSGTDFTLTISSLQPEDFAVYYCQQHYITPLTFGAGTKVEIK
notes: Sacituzumab variant, His at LCV position 33 (L1 10)
As for B5, the binding result in assay [1] is reported as “binds”.

B6: MYT11615 (antibody, V domains shown)
VH: QVQLQQSGSELKKPGASVKVSCKASGYTFTNYGMNWVKQAPGQGLKWMGWINTYTGEPTYTDDFKGRFAFSLDTSVSTAYLQISSLKADDTAVYFCARGGFGSSYWYFDVWGQGSLVTVSS
VL: DIQLTQSPSSLSASVGDRVSITCKASQDVSHAVAWYQQKPGKAPKLLIYSASYRYTGVPDRFSGSGSGTDFTLTISSLQPEDFAVYYCQQHYITPLTFGAGTKVEIK
notes: Sacituzumab variant, His at LCV position 31 (L1 08)
With B6, the binding result in assay [1] is on record as “binds”.

B7: MYT11613 (antibody, V domains shown)
VH: QVQLQQSGSELKKPGASVKVSCKASGYTFTNYGMNWVKQAPGQGLKWMGWINTYTGEPTYTDDFKGRFAFSLDTSVSTAYLQISSLKADDTAVYFCARGGFGSSYWYFDVWGQGSLVTVSS
VL: DIQLTQSPSSLSASVGDRVSITCKASQDHSIAVAWYQQKPGKAPKLLIYSASYRYTGVPDRFSGSGSGTDFTLTISSLQPEDFAVYYCQQHYITPLTFGAGTKVEIK
notes: Sacituzumab variant, His at LCV position 29 (L1 06)
Regarding B7, the binding result in assay [1] is on record as “binds”.

B8: MYT12410 (hu7E6SVG variant, HCV substitutions at 33, 56) (antibody, V domains shown)
VH: QVQLQESGPGLVKPSETLSLTCTVSGGSISSYHVHWIRQPPGKGLEWIGVIWTSGHTDYNSALMGRVTISVDTSKNQFSLKLSSVTAADTAVYYCARDGDYDRYTMDYWGQGTLVTVSS
VL: DIVMTQSPDSLAVSLGERATINCRASKSVSTSGYSYMHWYQQKPGQPPKLLIYLASNLESGVPDRFSGSGSGTDFTLTISSLQAEDVAVYYCQHSRELPYTFGQGTKLEIK
Turning to B8, the binding result in assay [2] is “binds”.

B9: MYT12427 (hu7E6SVG variant, HCV substitutions at 102, 106) (antibody, V domains shown)
VH: QVQLQESGPGLVKPSETLSLTCTVSGGSISSYGVHWIRQPPGKGLEWIGVIWTSGVTDYNSALMGRVTISVDTSKNQFSLKLSSVTAADTAVYYCARDGDYHRYTHDYWGQGTLVTVSS
VL: DIVMTQSPDSLAVSLGERATINCRASKSVSTSGYSYMHWYQQKPGQPPKLLIYLASNLESGVPDRFSGSGSGTDFTLTISSLQAEDVAVYYCQHSRELPYTFGQGTKLEIK
For the molecule B9, the binding result in assay [2] was “binds”.

B10: MYT12411 (hu7E6SVG variant, HCV substitutions at 33, 102) (antibody, V domains shown)
VH: QVQLQESGPGLVKPSETLSLTCTVSGGSISSYHVHWIRQPPGKGLEWIGVIWTSGVTDYNSALMGRVTISVDTSKNQFSLKLSSVTAADTAVYYCARDGDYHRYTMDYWGQGTLVTVSS
VL: DIVMTQSPDSLAVSLGERATINCRASKSVSTSGYSYMHWYQQKPGQPPKLLIYLASNLESGVPDRFSGSGSGTDFTLTISSLQAEDVAVYYCQHSRELPYTFGQGTKLEIK
For B10, the binding result in assay [2] was “binds”.

B11: MYT12419 (hu7E6SVG variant, HCV substitutions at 51, 56) (antibody, V domains shown)
VH: QVQLQESGPGLVKPSETLSLTCTVSGGSISSYGVHWIRQPPGKGLEWIGVHWTSGHTDYNSALMGRVTISVDTSKNQFSLKLSSVTAADTAVYYCARDGDYDRYTMDYWGQGTLVTVSS
VL: DIVMTQSPDSLAVSLGERATINCRASKSVSTSGYSYMHWYQQKPGQPPKLLIYLASNLESGVPDRFSGSGSGTDFTLTISSLQAEDVAVYYCQHSRELPYTFGQGTKLEIK
B11: the binding result in assay [2] is listed as “binds”.

B12: MYT12418 (hu7E6SVG variant, HCV substitutions at 34, 106) (antibody, V domains shown)
VH: QVQLQESGPGLVKPSETLSLTCTVSGGSISSYGHHWIRQPPGKGLEWIGVIWTSGVTDYNSALMGRVTISVDTSKNQFSLKLSSVTAADTAVYYCARDGDYDRYTHDYWGQGTLVTVSS
VL: DIVMTQSPDSLAVSLGERATINCRASKSVSTSGYSYMHWYQQKPGQPPKLLIYLASNLESGVPDRFSGSGSGTDFTLTISSLQAEDVAVYYCQHSRELPYTFGQGTKLEIK
With B12, in assay [2], the binding result was “binds”.

B13: MYT12426 (hu7E6SVG variant, HCV substitutions at 102, 103) (antibody, V domains shown)
VH: QVQLQESGPGLVKPSETLSLTCTVSGGSISSYGVHWIRQPPGKGLEWIGVIWTSGVTDYNSALMGRVTISVDTSKNQFSLKLSSVTAADTAVYYCARDGDYHHYTMDYWGQGTLVTVSS
VL: DIVMTQSPDSLAVSLGERATINCRASKSVSTSGYSYMHWYQQKPGQPPKLLIYLASNLESGVPDRFSGSGSGTDFTLTISSLQAEDVAVYYCQHSRELPYTFGQGTKLEIK
Consider B13, for which the binding result in assay [2] is reported as “binds”.

B14: MYT12423 (hu7E6SVG variant, HCV substitutions at 56, 102) (antibody, V domains shown)
VH: QVQLQESGPGLVKPSETLSLTCTVSGGSISSYGVHWIRQPPGKGLEWIGVIWTSGHTDYNSALMGRVTISVDTSKNQFSLKLSSVTAADTAVYYCARDGDYHRYTMDYWGQGTLVTVSS
VL: DIVMTQSPDSLAVSLGERATINCRASKSVSTSGYSYMHWYQQKPGQPPKLLIYLASNLESGVPDRFSGSGSGTDFTLTISSLQAEDVAVYYCQHSRELPYTFGQGTKLEIK
On to B14, for which the binding result in assay [2] is recorded as “binds”.

B15: MYT12414 (hu7E6SVG variant, HCV substitutions at 34, 51) (antibody, V domains shown)
VH: QVQLQESGPGLVKPSETLSLTCTVSGGSISSYGHHWIRQPPGKGLEWIGVHWTSGVTDYNSALMGRVTISVDTSKNQFSLKLSSVTAADTAVYYCARDGDYDRYTMDYWGQGTLVTVSS
VL: DIVMTQSPDSLAVSLGERATINCRASKSVSTSGYSYMHWYQQKPGQPPKLLIYLASNLESGVPDRFSGSGSGTDFTLTISSLQAEDVAVYYCQHSRELPYTFGQGTKLEIK
In the case of B15, the binding result in assay [2] is on record as “binds”.

B16: MYT12415 (hu7E6SVG variant, HCV substitutions at 34, 56) (antibody, V domains shown)
VH: QVQLQESGPGLVKPSETLSLTCTVSGGSISSYGHHWIRQPPGKGLEWIGVIWTSGHTDYNSALMGRVTISVDTSKNQFSLKLSSVTAADTAVYYCARDGDYDRYTMDYWGQGTLVTVSS
VL: DIVMTQSPDSLAVSLGERATINCRASKSVSTSGYSYMHWYQQKPGQPPKLLIYLASNLESGVPDRFSGSGSGTDFTLTISSLQAEDVAVYYCQHSRELPYTFGQGTKLEIK
Consider B16, for which the binding result in assay [2] is on record as “binds”.

B17: MYT12422 (hu7E6SVG variant, HCV substitutions at 51, 106) (antibody, V domains shown)
VH: QVQLQESGPGLVKPSETLSLTCTVSGGSISSYGVHWIRQPPGKGLEWIGVHWTSGVTDYNSALMGRVTISVDTSKNQFSLKLSSVTAADTAVYYCARDGDYDRYTHDYWGQGTLVTVSS
VL: DIVMTQSPDSLAVSLGERATINCRASKSVSTSGYSYMHWYQQKPGQPPKLLIYLASNLESGVPDRFSGSGSGTDFTLTISSLQAEDVAVYYCQHSRELPYTFGQGTKLEIK
B17: the binding result in assay [2] is “binds”.

For the origin of these results see patent US20260274985A1 (MYTHIC THERAPEUTICS, published 2026).
